Experimental data as given in patent publication US20190322748A1 (Hoffmann-La Roche, published 2019).

How the values were obtained:
[1] = biological target: T1, biotinylated cynoPD1-ECD-Biotin (cynomolgus); assay: ELISA on coated cynoPD1-ECD-Biotin
T1 construct: extracellular domain; also called cyPD1
Protocol: After washing (3×90 μl/well with PBST-buffer) 25 μl anti PD1 samples or reference antibodies (human anti PD1; Roche) were added and incubated 1 h at RT on shaker. After washing (3×90 μl/well with PBST-buffer) 25 μl/well goat-anti-human H+L-POD (JIR, JIR109-036-088) was added in 1:1000 dilution and incubated at RT for 1 h on shaker.

[2] = biological target: T2, biotinylated PD1-ECD-AviHis (human, UniProt Q15116 25-170, biotinylated, site not stated); assay: ELISA on coated biotinylated PD1-ECD-AviHis
T2 construct: also called huPD1; hu PD1

[3] = biological target: T2, biotinylated PD1-ECD-AviHis; assay: ELISA, inhibition of PD-L1 Fc binding to coated PD1-ECD-AviHis
[4] = biological target: T2, biotinylated PD1-ECD-AviHis; assay: ELISA, inhibition of PD-L2 Fc binding to coated PD1-ECD-AviHis
Protocol: After washing (3×90 μl/well with PBST-buffer) 25 μl anti PD1 samples or reference antibodies (mouse anti huPD1; Roche) were added and incubated 1 h at RT on shaker.

[5] = biological target: T3, full-length human Tim3 on cells (CHO-K1 stably transfected with plasmid 15312_hTIM3-fl_pUC_Neo) (human, UniProt Q8TDQ0 22-301); assay: cell-based or functional assay
[6] = biological target: T4, Tim3-ECD-His-Biotin (human, UniProt Q8TDQ0 22-202, biotinylated with BirA Ligase, site not stated); assay: ELISA on human Tim3
T4 construct: also called human Tim3 (ELISA); Biochem Human

[7] = biological target: T3, full-length human Tim3 on cells (CHO-K1 …); assay: cellular ELISA on CHO-TIM3
Protocol: (§1) Then the reaction was stopped by addition of 25 μl/well 1N HCL-solution.

[8] = biological target: T4, Tim3-ECD-His-Biotin; assay: ELISA on human Tim3 (values in relation to the samples max value)
Protocol: After washing (3×90 μl/well with PBST-buffer) 25 μl aTim3 samples or diluted (1:2 steps) reference antibody aTim3 F38-2E2 (Biolegend) was added and incubated 1 h at RT. After washing (3×90 μl/well with PBST-buffer) 25 μl/well sheep-anti-mouse-POD (GE NA9310V) was added in 1:9000 dilution and incubated at RT for 1 h while shaking at 400 rpm rotation. After washing (4×90 μl/well with PBST-buffer) 25 μl/well TMB substrate (Calbiochem, #CL07) was added and incubated until OD 1.5-2.5. Then the reaction was stopped by addition of 25 μl/well 1N HCL-solution.

[9] = biological target: T3, full-length human Tim3 on cells (CHO-K1 …); assay: cellular ELISA on CHO-TIM3 (values in relation to the samples max value)
Protocol: as §1

[10] = biological target: T2, biotinylated PD1-ECD-AviHis; assay: ELISA on coated biotinylated PD1-ECD-AviHis; remark: listed apart in the source
Protocol: After washing (3×90 μl/well with PBST-buffer) 25 μl anti PD1 antibody samples were added in increasing concentrations and incubated 1 h at RT. After washing (3×90 μl/well with PBST-buffer) 25 μl/well goat-anti-human H+L-POD (JIR, JIR109-036-098) was added in 1:5000 dilution and incubated at RT for 1 h on a shaker.

| Binder | EC50 [1] [µg/mL] | EC50 [2] [µg/mL] | IC50 [3] [µg/mL] | IC50 [4] [µg/mL] | other results |
| --- | --- | --- | --- | --- | --- |
| PD1-0069 (antibody, V domains shown) VH: QVQLQQSGPELVRPGVSVKISCKGSGYTFTDYAMHWVKQSHARTLEWIGVISTYSGDTNYNQKFKDKATMTVDKSSSTAYLELARMTSEDSAIYYCARLGITTGFAYWGQGTLVTVSA VL: DIVLTQSPASLAVSLGQRATISCRASKGVSTSSYSFMHWYQQKPRQPPKLLIKYASYLESGVPARFSGSGSGTDFTLNIHPVEEEDAATYYCHHSREFPWTFGGGTKLEIK | 0.0227 | 0.0457 | 0.225 | 0.089 | – |
| PD1-0073 (antibody, V domains shown) VH: EVKLVESGGGLVKPGGSLKLSCAASGFTFSNYGMSWIRQTPEKGLEWVATISGGGRDTYYPDSVKGRFTISRDNVKNNLYLQMSSLRSEDTAFYYCASYYYGIDYWGQGTSVTVSS VL: DIVMTQPHKFMSTSVGDRVRITCKASQDVTTAVAWYQQKPGQSPKLLIYWASTRHTGVPDRFTGSGSGTEFTLTISSVQAEDLALYYCQQHYSIPWTFGGGTKLEIK | 0.0083 | 0.0151 | 0.124 | 0.065 | – |
| Tim3_0038 (antibody, V domains shown) VH: EVQLQQSGAEPLKPGASVKLTCTTSGFNIKDYYIHWVKQRSDQGLEWIGRIDPEDGELIYAPKFQDKATITVDTSSNIAYLQLNSLTSEDTAVYYCSRDHGYVGWFAYWGQGTLVTVSA VL: NVVMTQSPKSMIMSVGQRVTLNCKASENVDTYVSWYQQKPEQSPKLLIYGASNRYTGVPDRFTGSRSATDFTLTISSVQAEDLAVYYCGQSYSYPWTFGGGTKLEFR | – | – | – | – | IFN-gamma release in MLR at 1 µg/ml antibody, % of rec hu IL-2 (20 EU/ml) = 100% [5]: 1%; IFN-gamma release in MLR at 10 µg/ml antibody, % of rec hu IL-2 (20 EU/ml) = 100% [5]: 38%; IFN-gamma release in MLR at 40 µg/ml antibody, % of rec hu IL-2 (20 EU/ml) = 100% [5]: 51% |
| PD1-0102 (antibody, V domains shown) VH: DVQLQESGPDLVKPSQSLSLTCTVTGYSITSGYSWHWIRQFPGNKLEWMGFIHSSGDTNYNPSLKSRISFTRDTSKNQFFLQLSSLTDEDTATYYCATYRNWYFDVWGAGTTVTVSS VL: DIVMTQSPSSLTVTAGEKVTMRCKSSQSLLNSGTQKNYLTWYQQKPGQPPKLLIYWASTRESGVPNRFTGSGSGTDFTLTISSVQAEDLSVYYCQSDYTFPLTFGGGTKLELK | 0.0527 | 0.0342 | > 35.5 | 0.14 | – |
| Tim3_0016 (antibody, V domains shown) VH: QVTLKESGPGILQPSQTLRLTCSFSGFSLSTSGMSVGWIRQPSGKGLEWLAHIWLNDDVFFNPALKSRLTISKDTSNNQVFLQIASVVTADTATYYCVRANGYLYALDYWGQGTSVTVSS VL: QIVLTQSPAIMSASPGQKVTITCSASSSVNYTQWYQQKLGSSPKLWIYDAFKLAPGVPARFSGSGTGTSYSLTISSMEAEDAASYFCHQWSSYPWTFGGGTKLEIK | – | – | – | – | IFN-gamma release in MLR at 1 µg/ml antibody, % of rec hu IL-2 (20 EU/ml) = 100% [5]: 7%; IFN-gamma release in MLR at 10 µg/ml antibody, % of rec hu IL-2 (20 EU/ml) = 100% [5]: 22% |
| Tim3_0018MutNQ (antibody, V domains shown) VH: QVTLKESGPGILQPSQTLSLTCSFSGFSLSTSGMSVGWIRQPSGKGLEWLAHIWLNDDVFFNPALKRRLTISKDTSNNQVFLQIASVVTADTATYYCVRANGYLYALDYWGQGISVTVSS VL: QIVLTQSPAIMSASPGQKVTITCSASSSVQYTQWYQQKLGSSPKLWIYDAFKLAPGVPARFSGSGTGTSYSLTISSMEAEDAASYFCHQWSSYPWTFGGGTKLEIK | – | – | – | – | Inflexion point [6]: 10.8 ng/mL; Inflexion point [7]: 12.8 ng/mL; EC50 [8]: 0.012 µg/mL; EC50 [9]: 0.0134 µg/mL |
| Tim3_0016MutNS (antibody, V domains shown) VH: QVTLKESGPGILQPSQTLRLTCSFSGFSLSTSGMSVGWIRQPSGKGLEWLAHIWLNDDVFFNPALKSRLTISKDTSNNQVFLQIASVVTADTATYYCVRANGYLYALDYWGQGTSVTVSS VL: QIVLTQSPAIMSASPGQKVTITCSASSSVSYTQWYQQKLGSSPKLWIYDAFKLAPGVPARFSGSGTGTSYSLTISSMEAEDAASYFCHQWSSYPWTFGGGTKLEIK | – | – | – | – | Inflexion point [6]: 5.5 ng/mL; Inflexion point [7]: 8.5 ng/mL; EC50 [8]: 0.0085 µg/mL; EC50 [9]: 0.0091 µg/mL |
| Tim3_0018MutNS (antibody, V domains shown) VH: QVTLKESGPGILQPSQTLSLTCSFSGFSLSTSGMSVGWIRQPSGKGLEWLAHIWLNDDVFFNPALKRRLTISKDTSNNQVFLQIASVVTADTATYYCVRANGYLYALDYWGQGISVTVSS VL: QIVLTQSPAIMSASPGQKVTITCSASSSVSYTQWYQQKLGSSPKLWIYDAFKLAPGVPARFSGSGTGTSYSLTISSMEAEDAASYFCHQWSSYPWTFGGGTKLEIK | – | – | – | – | Inflexion point [6]: 6.5 ng/mL; Inflexion point [7]: 11.1 ng/mL; EC50 [8]: 0.0103 µg/mL; EC50 [9]: 0.0112 µg/mL |
| Tim3_0016MutNQ (antibody, V domains shown) VH: QVTLKESGPGILQPSQTLRLTCSFSGFSLSTSGMSVGWIRQPSGKGLEWLAHIWLNDDVFFNPALKSRLTISKDTSNNQVFLQIASVVTADTATYYCVRANGYLYALDYWGQGTSVTVSS VL: QIVLTQSPAIMSASPGQKVTITCSASSSVQYTQWYQQKLGSSPKLWIYDAFKLAPGVPARFSGSGTGTSYSLTISSMEAEDAASYFCHQWSSYPWTFGGGTKLEIK | – | – | – | – | Inflexion point [6]: 5.7 ng/mL; Inflexion point [7]: 5.4 ng/mL; EC50 [8]: 0.0076 µg/mL; EC50 [9]: 0.0063 µg/mL |
| PD1-0078 (antibody, V domains shown) VH: QVQLQQPGAELVKPGASVKMSCKASGYTFTSTWMHWVKQRPGQGLEWIGAIDPSDSYTTYNQKFKGKATLTVDTSSTTAYMQLSSLTSEDSAVYYCTRSPFDYWGQGTTLTVSS VL: DIVMTQSHKFMSTSVGDRVSITCKASQDVSTAVAWYQQKPGQSPKLLIYSASYRYTGVPDRFTGSGSGTDFTFAISSVQAEDLAVYYCQQHYSHPFTFGSGTKLEIK | 0.0224 | 0.0263 | – | 0.086 | – |
| Chimeric TIM3-0028 (antibody, human IgG1, V domains shown, also called aTIM3-chi28) VH: EVQLQQSVAELVRPGASVKLSCTASGFNIKTTYMHWVKQRPEQGLEWIGRIDPADDNTKYAPKFQGKATITADTSSNTAYLQLSSLTSEDAAIYYCVRDFGYVAWFAYWGQGTLVTFSA VL: NIVMTPTPKFLPVSSGDRVTMTCRASQSVDNYVAWYQQKPGQSPKLLIYYASNRYIGVPDRFTGSGSGTDFTFTISSVQVEDLAVYFCQQHYSSPYTFGSGTKLEIK | – | – | – | – | binding result [10]: no binding |
| PD1-0050 (antibody, V domains shown) VH: DVQLQESGPGLVKPSQSLSLTCTVTGYSITSDYAWNWIRQFPGNKLEWMGYITYTGRTSYNPSLKSRISITRDTSKNQFFLQLNSVTTEDTATYYCAREMDYYGSTLDYWGQGTTLTVSS VL: KIVLTQSPASLAVSLRQRATISCRASESVDRYGNSFIHWYQQKPGQPPKVLIYRASNLESGFPARFSGSGSRTDFTLTIDPVEADDAATYYCQQNNEDPYTFGSGTKLEIK | 0.0098 | 0.0179 | 0.128 | 0.034 | – |
| PD1-0098 (antibody, V domains shown) VH: DVQLQESGPGLVKPSQSLSLTCTVTGYSITSDYAWNWIRQFPGDKLEWLGYITYSGFTNYNPSLKSRISISRDTSKNQFFLQLNSVATEDTATYYCARWHGSAPWYFDYWGRGTTLTVSS VL: DVLMTQTPLSLPVSLGDQASISCRSSQNIVHSDGNTYLEWYLQKPGQSPNLLIYKVSRRFSGVPDRFSGSGSGTDFTLKISRVEAEDLGVYYCFQGSHFPLTFGAGTKLELK | 0.0546 | 0.0508 | 0.174 | 0.045 | – |
| PD1-0103 (antibody, V domains shown, Mouse monoclonal antibody) VH: EVILVESGGGLVKPGGSLKLSCAASGFSFSSYTMSWVRQTPEKRLDWVATISGGGRDIYYPDSVKGRFTISRDNAKNTLYLEMSSLMSEDTALYYCVLLTGRVYFALDSWGQGTSVTVSS VL: KIVLTQSPASLPVSLGQRATISCRASESVDTSDNSFIHWYQQRPGQSPKLLIYRSSTLESGVPARFSGSGSRTDFTLTIDPVEADDVATYYCQQNYDVPWTFGGGTKLEIK | 0.0369 | 0.0337 | 0.182 | 0.051 | – |
